Test results taken from patent US20160200782A1.

Experiments:
Experiment in all cases: cell-based or functional assay
Fer(h) (human) = Fer(h) (human) (UniProt P16591)
Ron(h) (human) = Ron(h) (human) (UniProt Q04912)
EphA1(h) (human) = EphA1(h) (human) (UniProt P21709)
CLK3(h) (human) = CLK3(h) (human) (UniProt P49761)
PKCα(h) (human) = PKCα(h) (human) (UniProt P17252)
JAK3(h) (human) = JAK3(h) (human) (UniProt P52333)
EphA5(h) (human) = EphA5(h) (human) (UniProt P54756)
ARK5(h) (human) = ARK5(h) (human) (UniProt O60285)
MAPKAP-K2(h) (human) = MAPKAP-K2(h) (human) (UniProt P49137)
Sequence of MAPKAP-K2(h) (human) (P49137 46-400 limits assumed): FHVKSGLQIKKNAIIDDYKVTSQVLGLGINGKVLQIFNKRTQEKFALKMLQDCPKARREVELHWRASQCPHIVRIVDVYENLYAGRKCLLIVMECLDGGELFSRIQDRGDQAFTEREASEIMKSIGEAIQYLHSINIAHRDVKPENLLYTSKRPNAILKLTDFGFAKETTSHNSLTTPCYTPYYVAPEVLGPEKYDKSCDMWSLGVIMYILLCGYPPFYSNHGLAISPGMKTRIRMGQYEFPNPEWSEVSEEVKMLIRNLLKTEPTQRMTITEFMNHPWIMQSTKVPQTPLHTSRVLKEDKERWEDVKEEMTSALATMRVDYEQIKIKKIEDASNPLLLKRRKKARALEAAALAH

EGFR(h) (human) = EGFR(h) (human) (UniProt P00533)
SRPK1(h) (human) = SRPK1(h) (human) (UniProt Q96SB4)
Ab1(T315I)(h) (human) = Ab1(T315I)(h) (human) (UniProt P00519)
MSK1(h) (human) = MSK1(h) (human) (UniProt O75582)
BRK(h) (human) = BRK(h) (human) (UniProt Q13882)
Hck(h) activated (human) = Hck(h) activated (human) (UniProt P08631)
DCAMKL2(h) (human) = DCAMKL2(h) (human) (UniProt Q8N568)
cSRC(h) (human) = cSRC(h) (human) (UniProt P12931)
TSSK1(h) (human) = TSSK1(h) (human) (UniProt Q9BXA7)
Aurora-A(h) (human) = Aurora-A(h) (human) (UniProt O14965)
DRAK1(h) (human) = DRAK1(h) (human) (UniProt Q9UEE5)
Sequence of DRAK1(h) (human) (Q9UEE5 whole entry): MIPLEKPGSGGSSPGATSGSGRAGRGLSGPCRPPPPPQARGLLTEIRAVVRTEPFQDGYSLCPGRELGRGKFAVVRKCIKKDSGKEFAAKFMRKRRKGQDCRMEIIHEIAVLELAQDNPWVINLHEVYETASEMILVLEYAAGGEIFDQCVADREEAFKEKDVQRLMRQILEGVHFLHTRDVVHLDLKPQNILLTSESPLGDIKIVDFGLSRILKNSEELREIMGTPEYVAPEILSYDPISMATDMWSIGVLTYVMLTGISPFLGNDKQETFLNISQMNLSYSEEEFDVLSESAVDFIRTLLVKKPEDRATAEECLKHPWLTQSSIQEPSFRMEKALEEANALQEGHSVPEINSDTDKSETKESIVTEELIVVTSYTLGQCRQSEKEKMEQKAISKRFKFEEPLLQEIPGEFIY

AMPKa2(h) (human) = AMPKa2(h) (human) (UniProt P54646)
PKBα(h) (human) = PKBα(h) (human) (UniProt P31749)
STK33(h) (human) = STK33(h) (human) (UniProt Q9BYT3)
IRR(h) (human) = IRR(h) (human) (UniProt P14616)
CDK1/cyclinB(h) (human) = CDK1/cyclinB(h) (human) (UniProt P06493)
TSSK2(h) (human) = TSSK2(h) (human) (UniProt Q96PF2)
SGK2(h) (human) = SGK2(h) (human) (UniProt Q9HBY8)
Sequence of SGK2(h) (human) (Q9HBY8 whole entry): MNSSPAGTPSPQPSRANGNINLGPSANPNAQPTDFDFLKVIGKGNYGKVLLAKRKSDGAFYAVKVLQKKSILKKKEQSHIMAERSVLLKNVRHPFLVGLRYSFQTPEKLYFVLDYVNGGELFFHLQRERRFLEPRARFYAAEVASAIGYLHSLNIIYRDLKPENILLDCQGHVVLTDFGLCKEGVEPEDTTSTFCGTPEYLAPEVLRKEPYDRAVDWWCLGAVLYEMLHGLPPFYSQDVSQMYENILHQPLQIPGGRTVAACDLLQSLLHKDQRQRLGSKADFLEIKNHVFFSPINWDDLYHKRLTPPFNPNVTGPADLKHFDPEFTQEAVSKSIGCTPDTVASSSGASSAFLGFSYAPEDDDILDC

WNK2(h) (human) = WNK2(h) (human) (UniProt Q9Y3S1)
CaMKIV(h) (human) = CaMKIV(h) (human) (UniProt Q16566)
c-RAF(h) (human) = c-RAF(h) (human) (UniProt P04049)
CaMKIIδ(h) (human) = CaMKIIδ(h) (human) (UniProt Q13557)
SAPK3(h) (human) = SAPK3(h) (human) (UniProt P53778)
LKB1(h) (human) = LKB1(h) (human) (UniProt Q15831)
PKA(h) (human) = biological target: PKA(h) (human)
PrKX(h) (human) = PrKX(h) (human) (UniProt P51817)
SAPK4(h) (human) = SAPK4(h) (human) (UniProt O15264)
Tec(h)activated (human) = Tec(h)activated (human) (UniProt P42680)
cKit(h) (human) = cKit(h) (human) (UniProt P10721)
IKKα(h) (human) = IKKα(h) (human) (UniProt O15111)
MST3(h) (human) = MST3(h) (human) (UniProt Q9Y6E0)
Sequence of MST3(h) (human) (Q9Y6E0 whole entry): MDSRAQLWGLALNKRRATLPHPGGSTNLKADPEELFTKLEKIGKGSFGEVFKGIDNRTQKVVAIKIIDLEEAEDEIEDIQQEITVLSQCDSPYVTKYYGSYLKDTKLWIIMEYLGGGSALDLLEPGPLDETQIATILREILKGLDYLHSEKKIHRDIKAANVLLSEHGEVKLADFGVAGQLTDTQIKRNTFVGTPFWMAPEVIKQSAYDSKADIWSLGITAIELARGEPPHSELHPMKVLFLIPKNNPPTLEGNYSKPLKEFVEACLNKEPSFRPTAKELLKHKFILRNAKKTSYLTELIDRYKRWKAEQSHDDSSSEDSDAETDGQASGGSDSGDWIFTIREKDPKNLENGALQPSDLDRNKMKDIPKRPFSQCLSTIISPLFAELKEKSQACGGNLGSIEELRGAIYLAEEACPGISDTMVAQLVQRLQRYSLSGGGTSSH

PKCζ(h) (human) = PKCζ(h) (human) (UniProt Q05513)
CaMKIIγ(h) (human) = CaMKIIγ(h) (human) (UniProt Q13555)
JNK3(h) (human) = JNK3(h) (human) (UniProt P53779)
Itk(h) (human) = Itk(h) (human) (UniProt Q08881)
MINK(h) (human) = MINK(h) (human) (UniProt Q8N4C8)
CDK3/cyclinE(h) (human) = CDK3/cyclinE(h) (human) (UniProt Q00526)
Sequence of CDK3/cyclinE(h) (human) (Q00526 whole entry, chain 1 of 2): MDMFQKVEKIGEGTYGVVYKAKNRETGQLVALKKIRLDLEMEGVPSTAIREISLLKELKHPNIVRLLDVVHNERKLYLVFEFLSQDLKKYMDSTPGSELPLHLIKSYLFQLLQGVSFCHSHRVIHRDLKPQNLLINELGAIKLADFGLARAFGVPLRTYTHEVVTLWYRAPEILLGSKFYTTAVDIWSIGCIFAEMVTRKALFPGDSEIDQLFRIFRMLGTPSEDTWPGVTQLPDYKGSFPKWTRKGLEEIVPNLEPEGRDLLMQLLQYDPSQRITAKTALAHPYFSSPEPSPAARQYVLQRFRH
Sequence of CDK3/cyclinE(h) (human) (Q00526 whole entry, chain 2 of 2): as the sequence (Q00526 whole entry, chain 1 of 2) above

ASK1(h) (human) = ASK1(h) (human) (UniProt Q99683)
NEK7(h) (human) = NEK7(h) (human) (UniProt Q8TDX7)
Sequence of NEK7(h) (human) (Q8TDX7 whole entry): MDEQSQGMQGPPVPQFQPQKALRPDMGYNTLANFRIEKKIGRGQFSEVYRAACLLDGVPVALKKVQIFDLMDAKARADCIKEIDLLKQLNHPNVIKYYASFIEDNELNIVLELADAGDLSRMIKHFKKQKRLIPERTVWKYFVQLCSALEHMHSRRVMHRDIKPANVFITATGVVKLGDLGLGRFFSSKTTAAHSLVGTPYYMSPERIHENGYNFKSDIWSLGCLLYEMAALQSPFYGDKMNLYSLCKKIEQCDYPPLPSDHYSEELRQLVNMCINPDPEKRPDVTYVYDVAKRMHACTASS

IRAK4(h) (human) = IRAK4(h) (human) (UniProt Q9NWZ3)
EphA4(h) (human) = EphA4(h) (human) (UniProt P54764)
Sequence of EphA4(h) (human) (P54764 570-986 limits assumed): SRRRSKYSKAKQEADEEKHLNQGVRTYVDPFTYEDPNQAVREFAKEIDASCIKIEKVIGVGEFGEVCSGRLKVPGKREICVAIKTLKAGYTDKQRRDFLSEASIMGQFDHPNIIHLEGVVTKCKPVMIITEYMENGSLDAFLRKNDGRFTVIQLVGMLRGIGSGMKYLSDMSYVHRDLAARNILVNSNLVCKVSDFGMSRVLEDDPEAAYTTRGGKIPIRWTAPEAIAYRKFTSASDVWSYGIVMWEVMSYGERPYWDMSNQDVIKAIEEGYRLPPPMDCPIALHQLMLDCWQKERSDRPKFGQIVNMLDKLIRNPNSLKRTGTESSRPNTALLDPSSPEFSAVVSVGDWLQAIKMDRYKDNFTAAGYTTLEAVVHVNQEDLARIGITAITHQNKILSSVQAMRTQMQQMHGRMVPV

NEK6(h) (human) = NEK6(h) (human) (UniProt Q9HC98)
FGFR3(h) (human) = FGFR3(h) (human) (UniProt P22607)
Sequence of FGFR3(h) (human) (P22607 397-806 limits assumed): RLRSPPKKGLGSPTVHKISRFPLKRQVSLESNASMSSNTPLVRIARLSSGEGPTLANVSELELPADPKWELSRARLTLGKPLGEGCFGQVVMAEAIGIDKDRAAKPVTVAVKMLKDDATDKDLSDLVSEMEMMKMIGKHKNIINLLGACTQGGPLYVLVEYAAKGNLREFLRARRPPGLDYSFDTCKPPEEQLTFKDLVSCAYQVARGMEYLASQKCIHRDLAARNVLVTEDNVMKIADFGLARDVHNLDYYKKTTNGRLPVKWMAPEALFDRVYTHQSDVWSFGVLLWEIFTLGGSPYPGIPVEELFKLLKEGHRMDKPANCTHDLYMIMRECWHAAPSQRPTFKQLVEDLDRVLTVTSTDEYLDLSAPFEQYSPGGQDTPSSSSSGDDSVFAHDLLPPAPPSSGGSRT

ZAP-70(h) (human) = ZAP-70(h) (human) (UniProt P43403)
Sequence of ZAP-70(h) (human) (P43403 whole entry): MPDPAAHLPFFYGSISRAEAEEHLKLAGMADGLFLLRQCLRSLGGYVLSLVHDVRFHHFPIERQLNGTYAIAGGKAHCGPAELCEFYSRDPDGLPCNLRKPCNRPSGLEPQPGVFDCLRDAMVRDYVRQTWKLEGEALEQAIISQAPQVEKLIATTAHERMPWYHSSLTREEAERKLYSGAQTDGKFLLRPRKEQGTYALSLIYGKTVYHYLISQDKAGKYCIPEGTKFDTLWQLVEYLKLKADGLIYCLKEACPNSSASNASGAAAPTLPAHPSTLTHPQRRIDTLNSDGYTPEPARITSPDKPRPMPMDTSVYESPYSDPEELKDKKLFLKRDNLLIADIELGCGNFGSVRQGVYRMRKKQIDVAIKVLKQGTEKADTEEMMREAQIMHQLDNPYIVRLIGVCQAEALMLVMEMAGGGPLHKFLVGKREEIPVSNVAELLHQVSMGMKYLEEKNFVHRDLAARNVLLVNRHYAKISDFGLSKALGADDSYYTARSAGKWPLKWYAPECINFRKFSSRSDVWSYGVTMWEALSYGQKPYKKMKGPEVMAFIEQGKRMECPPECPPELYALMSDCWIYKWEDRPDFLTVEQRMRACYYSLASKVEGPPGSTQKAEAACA

TrkB(h) (human) = TrkB(h) (human) (UniProt Q16620)
Sequence of TrkB(h) (human) (Q16620 455-822 limits assumed): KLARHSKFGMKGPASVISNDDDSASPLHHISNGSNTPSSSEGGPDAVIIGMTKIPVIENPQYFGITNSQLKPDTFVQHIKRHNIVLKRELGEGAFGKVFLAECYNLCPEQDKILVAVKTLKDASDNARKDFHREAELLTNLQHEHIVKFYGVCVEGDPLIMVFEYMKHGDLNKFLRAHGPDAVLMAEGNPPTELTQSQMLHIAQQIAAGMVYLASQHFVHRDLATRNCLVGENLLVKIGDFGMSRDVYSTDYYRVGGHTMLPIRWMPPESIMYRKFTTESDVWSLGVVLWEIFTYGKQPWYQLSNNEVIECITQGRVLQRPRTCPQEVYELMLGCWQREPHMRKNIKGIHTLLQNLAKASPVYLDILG

Arg(h) (human) = Arg(h) (human) (UniProt P42684)
cKit(V560G)(h) (human) = cKit(V560G)(h) (human) (UniProt P10721)
Snk(h) (human) = Snk(h) (human) (UniProt Q9NYY3)

Sequence of EphA5(h) (human) (P54756 595-1037 limits assumed): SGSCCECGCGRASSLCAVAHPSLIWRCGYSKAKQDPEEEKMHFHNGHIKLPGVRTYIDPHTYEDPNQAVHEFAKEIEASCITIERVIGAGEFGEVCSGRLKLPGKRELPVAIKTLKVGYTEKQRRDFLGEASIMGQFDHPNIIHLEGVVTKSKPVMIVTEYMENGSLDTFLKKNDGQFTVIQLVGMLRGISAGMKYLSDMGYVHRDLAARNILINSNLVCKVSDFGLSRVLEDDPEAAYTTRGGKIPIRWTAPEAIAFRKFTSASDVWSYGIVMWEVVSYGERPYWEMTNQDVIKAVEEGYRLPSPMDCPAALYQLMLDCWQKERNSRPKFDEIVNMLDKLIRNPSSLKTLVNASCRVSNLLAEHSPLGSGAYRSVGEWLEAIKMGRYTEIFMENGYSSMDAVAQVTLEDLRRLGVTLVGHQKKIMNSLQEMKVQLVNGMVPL

MMI-0500 (peptide)
% activity (Fer(h) (human)): 196% | % activity (Ron(h) (human)): 46% | % activity (EphA1(h) (human)): 40% | % activity (CLK3(h) (human)): 76% | % activity (PKCα(h) (human)): 3% | % activity (JAK3(h) (human)): 95% | % activity (EphA5(h) (human)): 42% | % activity (ARK5(h) (human)): 20% | % activity (MAPKAP-K2(h) (human)): 9% | % activity (EGFR(h) (human)): -1% | % activity (SRPK1(h) (human)): 80% | % activity (Ab1(T315I)(h) (human)): 16% | % activity (MSK1(h) (human)): 8% | % activity (BRK(h) (human)): 41% | % activity (Hck(h) activated (human)): 67% | % activity (DCAMKL2(h) (human)): 56% | % activity (cSRC(h) (human)): 30% | % activity (TSSK1(h) (human)): 46% | % activity (Aurora-A(h) (human)): 110% | % activity (DRAK1(h) (human)): 8% | % activity (AMPKa2(h) (human)): 9% | % activity (PKBα(h) (human)): 30% | % activity (STK33(h) (human)): 16% | % activity (IRR(h) (human)): 10% | % activity (CDK1/cyclinB(h) (human)): 57% | % activity (TSSK2(h) (human)): 92% | % activity (SGK2(h) (human)): -1% | % activity (WNK2(h) (human)): 8% | % activity (CaMKIV(h) (human)): -1% | % activity (c-RAF(h) (human)): 19% | % activity (CaMKIIδ(h) (human)): 1% | % activity (SAPK3(h) (human)): 24% | % activity (LKB1(h) (human)): 51% | % activity (PKA(h) (human)): 118% | % activity (PrKX(h) (human)): 57% | % activity (SAPK4(h) (human)): 48% | % activity (Tec(h)activated (human)): 33% | % activity (cKit(h) (human)): 45% | % activity (IKKα(h) (human)): 50% | % activity (MST3(h) (human)): 4% | % activity (PKCζ(h) (human)): 7% | % activity (CaMKIIγ(h) (human)): 3% | % activity (JNK3(h) (human)): 171% | % activity (Itk(h) (human)): 7% | % activity (MINK(h) (human)): 5% | % activity (CDK3/cyclinE(h) (human)): 8% | % activity (ASK1(h) (human)): -4% | % activity (NEK7(h) (human)): 89% | % activity (IRAK4(h) (human)): 3% | % activity (EphA4(h) (human)): 48% | % activity (NEK6(h) (human)): 49% | % activity (FGFR3(h) (human)): 10% | % activity (ZAP-70(h) (human)): 1% | % activity (TrkB(h) (human)): 12% | % activity (Arg(h) (human)): 22% | % activity (cKit(V560G)(h) (human)): 198% | % activity (Snk(h) (human)): 122%

MMI-0200 (peptide)
% activity (Fer(h) (human)): 101% | % activity (Ron(h) (human)): 120% | % activity (EphA1(h) (human)): 136% | % activity (CLK3(h) (human)): 76% | % activity (PKCα(h) (human)): 100% | % activity (JAK3(h) (human)): 117% | % activity (EphA5(h) (human)): 123% | % activity (ARK5(h) (human)): 93% | % activity (MAPKAP-K2(h) (human)): 35% | % activity (EGFR(h) (human)): 83% | % activity (SRPK1(h) (human)): 93% | % activity (Ab1(T315I)(h) (human)): 108% | % activity (MSK1(h) (human)): 50% | % activity (BRK(h) (human)): 127% | % activity (Hck(h) activated (human)): 100% | % activity (DCAMKL2(h) (human)): 131% | % activity (cSRC(h) (human)): 32% | % activity (TSSK1(h) (human)): 98% | % activity (Aurora-A(h) (human)): 107% | % activity (DRAK1(h) (human)): 34% | % activity (AMPKa2(h) (human)): 88% | % activity (PKBα(h) (human)): 110% | % activity (STK33(h) (human)): 98% | % activity (IRR(h) (human)): 69% | % activity (CDK1/cyclinB(h) (human)): 115% | % activity (TSSK2(h) (human)): 91% | % activity (SGK2(h) (human)): 119% | % activity (WNK2(h) (human)): 94% | % activity (CaMKIV(h) (human)): 71% | % activity (c-RAF(h) (human)): 115% | % activity (CaMKIIδ(h) (human)): 2% | % activity (SAPK3(h) (human)): 97% | % activity (LKB1(h) (human)): 99% | % activity (PKA(h) (human)): 110% | % activity (PrKX(h) (human)): 112% | % activity (SAPK4(h) (human)): 106% | % activity (Tec(h)activated (human)): 77% | % activity (cKit(h) (human)): 110% | % activity (IKKα(h) (human)): 104% | % activity (MST3(h) (human)): 95% | % activity (PKCζ(h) (human)): 98% | % activity (CaMKIIγ(h) (human)): 94% | % activity (JNK3(h) (human)): 90% | % activity (Itk(h) (human)): 98% | % activity (MINK(h) (human)): 103% | % activity (CDK3/cyclinE(h) (human)): 104% | % activity (ASK1(h) (human)): 101% | % activity (NEK7(h) (human)): 96% | % activity (IRAK4(h) (human)): 110% | % activity (EphA4(h) (human)): 127% | % activity (NEK6(h) (human)): 98% | % activity (FGFR3(h) (human)): 208% | % activity (ZAP-70(h) (human)): 58% | % activity (TrkB(h) (human)): 7% | % activity (Arg(h) (human)): 82% | % activity (cKit(V560G)(h) (human)): 115% | % activity (Snk(h) (human)): 109%
